{"source": "the supplement of paper PMC11316812", "key": {"[1]": {"tested_on": "MCF7", "assay": "percentage of EdU-negative (G0-arrested) nuclei per well, 72 h; higher = more G0 arrest", "settings": "reference: sequence is the full UniProt precursor, the tested protein was the secreted form or ectodomain"}, "[2]": {"tested_on": "hTERT-HMEC", "assay": "percentage of EdU-negative (G0-arrested) nuclei per well, 72 h; higher = more G0 arrest", "settings": "reference: sequence is the full UniProt precursor, the tested protein was the secreted form or ectodomain"}, "[3]": {"settings": "protein concentration 0.02025 µM"}, "[4]": {"settings": "protein concentration 0.2025 µM"}, "[5]": {"settings": "protein concentration 0.03125 µM"}, "[6]": {"settings": "protein concentration 0.3125 µM"}, "[7]": {"settings": "protein concentration 0.01775 µM"}, "[8]": {"settings": "protein concentration 0.1775 µM"}, "[9]": {"settings": "protein concentration 0.0225 µM"}, "[10]": {"settings": "protein concentration 0.01575 µM"}, "[11]": {"settings": "protein concentration 0.1575 µM"}, "[12]": {"settings": "protein concentration 0.0055 µM"}}, "note": "± gives the standard deviation of the averaged measurements.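 Also: secreted proteins added to cultured cells, EdU pulse at the end, nuclei found by Hoechst imaging, EdU status from nuclear versus surrounding ring intensity ratio, PBS as neutral control.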"}
{"sequence": "MKPATGLWVWVSLLVAAGTVQPSDSQSVCAGTENKLSSLSDLEQQYRALRKYYENCEVVMGNLEITSIEHNRDLSFLRSVREVTGYVLVALNQFRYLPLENLRIIRGTKLYEDRYALAIFLNYRKDGNFGLQELGLKNLTEILNGGVYVDQNKFLCYADTIHWQDIVRNPWPSNLTLVSTNGSSGCGRCHKSCTGRCWGPTENHCQTLTRTVCAEQCDGRCYGPYVSDCCHRECAGGCSGPKDTDCFACMNFNDSGACVTQCPQTFVYNPTTFQLEHNFNAKYTYGAFCVKKCPHNFVVDSSSCVRACPSSKMEVEENGIKMCKPCTDICPKACDGIGTGSLMSAQTVDSSNIDKFINCTKINGNLIFLVTGIHGDPYNAIEAIDPEKLNVFRTVREITGFLNIQSWPPNMTDFSVFSNLVTIGGRVLYSGLSLLILKQQGITSLQFQSLKEISAGNIYITDNSNLCYYHTINWTTLFSTINQRIVIRDNRKAENCTAEGMVCNHLCSSDGCWGPGPDQCLSCRRFSRGRICIESCNLYDGEFREFENGSICVECDPQCEKMEDGLLTCHGPGPDNCTKCSHFKDGPNCVEKCPDGLQGANSFIFKYADPDRECHPCHPNCTQGCNGPTSHDCIYYPWTGHSTLPQHARTPLIAAGVIGGLFILVIVGLTFAVYVRRKSIKKKRALRRFLETELVEPLTPSGTAPNQAQLRILKETELKRVKVLGSGAFGTVYKGIWVPEGETVKIPVAIKILNETTGPKANVEFMDEALIMASMDHPHLVRLLGVCLSPTIQLVTQLMPHGCLLEYVHEHKDNIGSQLLLNWCVQIAKGMMYLEERRLVHRDLAARNVLVKSPNHVKITDFGLARLLEGDEKEYNADGGKMPIKWMALECIHYRKFTHQSDVWSYGVTIWELMTFGGKPYDGIPTREIPDLLEKGERLPQPPICTIDVYMVMVKCWMIDADSRPKFKELAAEFSRMARDPQRYLVIQGDDRMKLPSPNDSKFFQNLLDEEDLEDMMDAEEYLVPQAFNIPPPIYTSRARIDSNRSEIGHSPPPAYTPMSGNQFVYRDGGFAAEQGVSVPYRAPTSTIPEAPVAQGATAEIFDDSCCNGTLRKPVAPHVQEDSSTQRYSADPTVFAPERSPRGELDEEGYMTPMRDKPKQEYLNPVEENPFVSRRKNGDLQALDNPEYHNASNGPPKAEDEYVNEPLYLNTFANTLGKAEYLKNNILSMPEKAKKAFDNPDYWNHSLPPRSTLQHPDYLQEYSTKYFYKQNGRIRPIVAENPEYLSEFSLKPGTVLPPPPYRHRNTVV", "values": [{"measurement": "percentage of EdU-negative", "setting": "[1]; [3]", "value": "26.2 ± 1.2", "unit": "%"}, {"measurement": "percentage of EdU-negative", "setting": "[1]; [4]", "value": "25.4 ± 1.2", "unit": "%"}, {"measurement": "percentage of EdU-negative", "setting": "[2]; [3]", "value": "4.75 ± 0.55", "unit": "%"}, {"measurement": "percentage of EdU-negative", "setting": "[2]; [4]", "value": "7.8 ± 0.72", "unit": "%"}]}
{"sequence": "MKTLFLGVTLGLAAALSFTLEEEDITGTWYVKAMVVDKDFPEDRRPRKVSPVKVTALGGGNLEATFTFMREDRCIQKKILMRKTEEPGKFSAYGGRKLIYLQELPGTDDYVFYCKDQRRGGLRYMGKLVGRNPNTNLEALEEFKKLVQHKGLSEEDIFMPLQTGSCVLEH [Q9NY56]", "values": [{"measurement": "percentage of EdU-negative", "setting": "[1]; [5]", "value": "25.1 ± 0.74", "unit": "%"}, {"measurement": "percentage of EdU-negative", "setting": "[1]; [6]", "value": "25.7 ± 0.44", "unit": "%"}, {"measurement": "percentage of EdU-negative", "setting": "[2]; [5]", "value": "5 ± 0.88", "unit": "%"}, {"measurement": "percentage of EdU-negative", "setting": "[2]; [6]", "value": "6.83 ± 0.95", "unit": "%"}]}
{"sequence": "MIRTLLLSTLVAGALSCGDPTYPPYVTRVVGGEEARPNSWPWQVSLQYSSNGKWYHTCGGSLIANSWVLTAAHCISSSRTYRVGLGRHNLYVAESGSLAVSVSKIVVHKDWNSNQISKGNDIALLKLANPVSLTDKIQLACLPPAGTILPNNYPCYVTGWGRLQTNGAVPDVLQQGRLLVVDYATCSSSAWWGSSVKTSMICAGGDGVISSCNGDSGGPLNCQASDGRWQVHGIVSFGSRLGCNYYHKPSVFTRVSNYIDWINSVIANN", "values": [{"measurement": "percentage of EdU-negative", "setting": "[1]; [7]", "value": "23.79 ± 0.23", "unit": "%"}, {"measurement": "percentage of EdU-negative", "setting": "[1]; [8]", "value": "29.6 ± 2.2", "unit": "%"}, {"measurement": "percentage of EdU-negative", "setting": "[2]; [7]", "value": "6.83 ± 1.7", "unit": "%"}, {"measurement": "percentage of EdU-negative", "setting": "[2]; [8]", "value": "24.7 ± 3.9", "unit": "%"}]}
{"sequence": "MTPALTALLCLGLSLGPRTRVQAGPFPKPTLWAEPGSVISWGSPVTIWCQGSLEAQEYQLDKEGSPEPLDRNNPLEPKNKARFSIPSMTQHHAGRYRCHYYSSAGWSEPSDPLELVMTGFYNKPTLSALPSPVVASGGNMTLRCGSQKGYHHFVLMKEGEHQLPRTLDSQQLHSGGFQALFPVGPVTPSHRWRFTCYYYYTNTPRVWSHPSDPLEILPSGVSRKPSLLTLQGPVLAPGQSLTLQCGSDVGYDRFVLYKEGERDFLQRPGQQPQAGLSQANFTLGPVSPSHGGQYRCYGAHNLSSEWSAPSDPLNILMAGQIYDTVSLSAQPGPTVASGENVTLLCQSRGYFDTFLLTKEGAAHPPLRLRSMYGAHKYQAEFPMSPVTSAHAGTYRCYGSYSSNPHLLSFPSEPLELMVSGHSGGSSLPPTGPPSTPASHAKDYTVENLIRMGMAGLVLVFLGILLFEAQHSQRNPQDAAGR [Q6PI73]", "values": [{"measurement": "percentage of EdU-negative", "setting": "[1]; [9]", "value": "22.6 ± 0.32", "unit": "%"}, {"measurement": "percentage of EdU-negative", "setting": "[1]; protein concentration 0.225 µM", "value": "24.9 ± 4.2", "unit": "%"}, {"measurement": "percentage of EdU-negative", "setting": "[2]; [9]", "value": "5.69 ± 0.33", "unit": "%"}, {"measurement": "percentage of EdU-negative", "setting": "[2]; protein concentration 0.225 µM", "value": "5.12 ± 0.84", "unit": "%"}]}
{"sequence": "MASTSYDYCRVPMEDGDKRCKLLLGIGILVLLIIVILGVPLIIFTIKANSEACRDGLRAVMECRNVTHLLQQELTEAQKGFQDVEAQAATCNHTVMALMASLDAEKAQGQKKVEELEGEITTLNHKLQDASAEVERLRRENQVLSVRIADKKYYPSSQDSSSAAAPQLLIVLLGLSALLQ", "values": [{"measurement": "percentage of EdU-negative", "setting": "[1]; [9]", "value": "26.3 ± 3.5", "unit": "%"}, {"measurement": "percentage of EdU-negative", "setting": "[1]; protein concentration 0.225 µM", "value": "26.7 ± 3.2", "unit": "%"}, {"measurement": "percentage of EdU-negative", "setting": "[2]; [9]", "value": "4.74 ± 0.69", "unit": "%"}, {"measurement": "percentage of EdU-negative", "setting": "[2]; protein concentration 0.225 µM", "value": "4.84 ± 0.58", "unit": "%"}]}
{"sequence": "MAAVVAATRWWQLLLVLSAAGMGASGAPQPPNILLLLMDDMGWGDLGVYGEPSRETPNLDRMAAEGLLFPNFYSANPLCSPSRAALLTGRLPIRNGFYTTNAHARNAYTPQEIVGGIPDSEQLLPELLKKAGYVSKIVGKWHLGHRPQFHPLKHGFDEWFGSPNCHFGPYDNKARPNIPVYRDWEMVGRYYEEFPINLKTGEANLTQIYLQEALDFIKRQARHHPFFLYWAVDATHAPVYASKPFLGTSQRGRYGDAVREIDDSIGKILELLQDLHVADNTFVFFTSDNGAALISAPEQGGSNGPFLCGKQTTFEGGMREPALAWWPGHVTAGQVSHQLGSIMDLFTTSLALAGLTPPSDRAIDGLNLLPTLLQGRLMDRPIFYYRGDTLMAATLGQHKAHFWTWTNSWENFRQGIDFCPGQNVSGVTTHNLEDHTKLPLIFHLGRDPGERFPLSFASAEYQEALSRITSVVQQHQEALVPAQPQLNVCNWAVMNWAPPGCEKLGKCLTPPESIPKKCLWSH", "values": [{"measurement": "percentage of EdU-negative", "setting": "[1]; [10]", "value": "27.9 ± 1.1", "unit": "%"}, {"measurement": "percentage of EdU-negative", "setting": "[1]; [11]", "value": "26.9 ± 0.35", "unit": "%"}, {"measurement": "percentage of EdU-negative", "setting": "[2]; [10]", "value": "5.59 ± 0.71", "unit": "%"}, {"measurement": "percentage of EdU-negative", "setting": "[2]; [11]", "value": "24.2 ± 1.3", "unit": "%"}]}
{"sequence": "MRLSWFRVLTVLSICLSAVATATGAEGKRKLQIGVKKRVDHCPIKSRKGDVLHMHYTGKLEDGTEFDSSLPQNQPFVFSLGTGQVIKGWDQGLLGMCEGEKRKLVIPSELGYGERGAPPKIPGGATLVFEVELLKIERRTEL", "values": [{"measurement": "percentage of EdU-negative", "setting": "[1]; [9]", "value": "25.5 ± 0.037", "unit": "%"}, {"measurement": "percentage of EdU-negative", "setting": "[1]; protein concentration 0.225 µM", "value": "29.219 ± 0.017", "unit": "%"}, {"measurement": "percentage of EdU-negative", "setting": "[2]; [9]", "value": "4.9 ± 1.4", "unit": "%"}, {"measurement": "percentage of EdU-negative", "setting": "[2]; protein concentration 0.225 µM", "value": "6.25 ± 0.1", "unit": "%"}]}
{"sequence": "MRLLAKIICLMLWAICVAEDCNELPPRRNTEILTGSWSDQTYPEGTQAIYKCRPGYRSLGNVIMVCRKGEWVALNPLRKCQKRPCGHPGDTPFGTFTLTGGNVFEYGVKAVYTCNEGYQLLGEINYRECDTDGWTNDIPICEVVKCLPVTAPENGKIVSSAMEPDREYHFGQAVRFVCNSGYKIEGDEEMHCSDDGFWSKEKPKCVEISCKSPDVINGSPISQKIIYKENERFQYKCNMGYEYSERGDAVCTESGWRPLPSCEEKSCDNPYIPNGDYSPLRIKHRTGDEITYQCRNGFYPATRGNTAKCTSTGWIPAPRCTLKPCDYPDIKHGGLYHENMRRPYFPVAVGKYYSYYCDEHFETPSGSYWDHIHCTQDGWSPAVPCLRKCYFPYLENGYNQNYGRKFVQGKSIDVACHPGYALPKAQTTVTCMENGWSPTPRCIRVKTCSKSSIDIENGFISESQYTYALKEKAKYQCKLGYVTADGETSGSITCGKDGWSAQPTCIKSCDIPVFMNARTKNDFTWFKLNDTLDYECHDGYESNTGSTTGSIVCGYNGWSDLPICYERECELPKIDVHLVPDRKKDQYKVGEVLKFSCKPGFTIVGPNSVQCYHFGLSPDLPICKEQVQSCGPPPELLNGNVKEKTKEEYGHSEVVEYYCNPRFLMKGPNKIQCVDGEWTTLPVCIVEESTCGDIPELEHGWAQLSSPPYYYGDSVEFNCSESFTMIGHRSITCIHGVWTQLPQCVAIDKLKKCKSSNLIILEEHLKNKKEFDHNSNIRYRCRGKEGWIHTVCINGRWDPEVNCSMAQIQLCPPPPQIPNSHNMTTTLNYRDGEKVSVLCQENYLIQEGEEITCKDGRWQSIPLCVEKIPCSQPPQIEHGTINSSRSSQESYAHGTKLSYTCEGGFRISEENETTCYMGKWSSPPQCEGLPCKSPPEISHGVVAHMSDSYQYGEEVTYKCFEGFGIDGPAIAKCLGEKWSHPPSCIKTDCLSLPSFENAIPMGEKKDVYKAGEQVTYTCATYYKMDGASNVTCINSRWTGRPTCRDTSCVNPPTVQNAYIVSRQMSKYPSGERVRYQCRSPYEMFGDEEVMCLNGNWTEPPQCKDSTGKCGPPPPIDNGDITSFPLSVYAPASSVEYQCQNLYQLEGNKRITCRNGQWSEPPKCLHPCVISREIMENYNIALRWTAKQKLYSRTGESVEFVCKRGYRLSSRSHTLRTTCWDGKLEYPTCAKR", "values": [{"measurement": "percentage of EdU-negative", "setting": "[1]; [12]", "value": "25.1 ± 0.8", "unit": "%"}, {"measurement": "percentage of EdU-negative", "setting": "[1]; protein concentration 0.055 µM", "value": "25.5 ± 2.4", "unit": "%"}, {"measurement": "percentage of EdU-negative", "setting": "[2]; [12]", "value": "5.14 ± 0.38", "unit": "%"}, {"measurement": "percentage of EdU-negative", "setting": "[2]; protein concentration 0.055 µM", "value": "7.65 ± 0.92", "unit": "%"}]}
